Experimental data from patent publication CN116355089A.

What was measured:
[1] = target: 人IV型胶原蛋白α3链多肽 (human); test: indirect ELISA, purified antibody on plates coated with 0.5 μg/ml peptide
[2] = target: 生物素标记的抗原多肽; test: BLI (Fortebio Octet), biotinylated peptide on SA biosensor, antibody at 1.56-100 nM

B1: 4E5E2-1 (antibody, IgG1, V domains shown)
VH: EVQLQQSGAELVRSGASVKLSCTASGFNIKDSNIHWLIQRPEQDLEWIGWIDPDNGDSEYAPKFQGEATMTADTSSNTAYLQLSSLTSEDTAVYFCNAVNWDYFDYWGQGTTLTVSS
VL: DVVVTQTPLSLPVSLGDQASISCRSSQSLVHNNGNTYLHWYLQRPGQSPKLLIYKVSNRFSGVPDRVSGSGSGTDFTLKISRVEAEDLGVYFCSQSTHIPITFGSGTKLEIK
EC50 [1]: 4.64 ng/mL | Kd [2]: 0.399 nM
